From patent publication US20220324909A1 (COHBAR, published 2022)
Non-standard residues stand in square brackets, D forms with d. Primed or numbered codes have the meaning given here. No end group written: not given here. PEG12(3) = not defined here

T1: Apelin Receptor (APJ) stably overexpressed in CHO-K1 AGTRL1 Gi cells (human, UniProt P35414 1-380)
T1 sequence (looked up): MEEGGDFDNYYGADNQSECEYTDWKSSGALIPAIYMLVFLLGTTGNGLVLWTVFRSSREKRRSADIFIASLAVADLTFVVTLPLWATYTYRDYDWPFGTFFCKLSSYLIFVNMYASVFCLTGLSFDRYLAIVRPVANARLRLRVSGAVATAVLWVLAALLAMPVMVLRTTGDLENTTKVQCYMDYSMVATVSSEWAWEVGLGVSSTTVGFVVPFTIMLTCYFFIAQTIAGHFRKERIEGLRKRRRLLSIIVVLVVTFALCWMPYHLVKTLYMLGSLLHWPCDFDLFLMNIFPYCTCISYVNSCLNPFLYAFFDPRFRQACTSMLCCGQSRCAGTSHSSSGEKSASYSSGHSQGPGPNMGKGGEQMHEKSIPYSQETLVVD


Legend:
[1] = target: ProLink tagged human APJ (Apelin Receptor) in CHO-K1 AGTRL1 β-Arrestin cells (human, UniProt P35414 1-380); assay: cell-based or functional assay
[2] = target: T1, Apelin Receptor (APJ) stably …; assay: cell-based or functional assay

| Binder | β-Arrestin recruitment, Percent of Apelin-13 Control Activity (10 µM peptide) [1] | cAMP levels, Percent of Pyr-Apelin-13 Control Activity (10 µM peptide, 10 µM forskolin) [2] |
| --- | --- | --- |
| RRMMGMVFQCLSG[dA] [SEQ ID NO 16] | 0 % of Apelin-13 control |  |
| RMMGMVF [SEQ ID NO 50] | 0 % of Apelin-13 control | 8 % of Pyr-Apelin-13 control |
| RMMGMVFQ [SEQ ID NO 51] | 0 % of Apelin-13 control | 24 % of Pyr-Apelin-13 control |
| RMMGMVFQS [SEQ ID NO 52] | 0 % of Apelin-13 control | 15 % of Pyr-Apelin-13 control |
| RMMGMVFQSL [SEQ ID NO 53] | 1 % of Apelin-13 control | 6 % of Pyr-Apelin-13 control |
| RMMGMVFQSLCG[dA] [SEQ ID NO 54] | 1 % of Apelin-13 control | 20 % of Pyr-Apelin-13 control |
| RRMMGM [SEQ ID NO 55] | 1 % of Apelin-13 control | -7 % of Pyr-Apelin-13 control |
| RRMMGMV [SEQ ID NO 56] | 0 % of Apelin-13 control | -2 % of Pyr-Apelin-13 control |
| RRMMGMVF [SEQ ID NO 57] | 0 % of Apelin-13 control | -1 % of Pyr-Apelin-13 control |
| RRMMGMVFQ [SEQ ID NO 58] | 0 % of Apelin-13 control | 5 % of Pyr-Apelin-13 control |
| RRMMGMVFQS [SEQ ID NO 59] | 0 % of Apelin-13 control | -2 % of Pyr-Apelin-13 control |
| RRMMGMVFQSLSG[dA] [SEQ ID NO 17] | 10 % of Apelin-13 control | 26 % of Pyr-Apelin-13 control |
| RRMMGMVFQSL [SEQ ID NO 60] | 0 % of Apelin-13 control | 16 % of Pyr-Apelin-13 control |
| Ac-RRMMGMVFQSLCG[dA] [SEQ ID NO 61] | 5 % of Apelin-13 control | 1 % of Pyr-Apelin-13 control |
| RRMMGMVFQSLCG[dA]-NH2 [SEQ ID NO 62] | 2 % of Apelin-13 control | 27 % of Pyr-Apelin-13 control |
| Ac-RRMMGMVFQSLCG[dA]-NH2 [SEQ ID NO 63] | 9 % of Apelin-13 control | 21 % of Pyr-Apelin-13 control |
| RRXXGXVFQCLCGA ((Nle) norleucine at positions 3, 4 and 6; (dA) D-alanine at position 14) [SEQ ID NO 18] | 1 % of Apelin-13 control | 30 % of Pyr-Apelin-13 control |
| RRMVFQCLCG[dA] (cysteine pairing not given here) [SEQ ID NO 19] | 1 % of Apelin-13 control | 27 % of Pyr-Apelin-13 control |
| KRRMMGMVFQCLCGA ((PEG12) on the N-terminal K (position 1); (dA) D-alanine at position 15) [SEQ ID NO 20] | 1 % of Apelin-13 control | 37 % of Pyr-Apelin-13 control |
| RRMMGMVFQCLCG[dA]K(PEG12(3)) (cysteine pairing not given here) [SEQ ID NO 21] | 1 % of Apelin-13 control | 34 % of Pyr-Apelin-13 control |
| RRMVYQCLCG[dA] (cysteine pairing not given here) [SEQ ID NO 22] | 0 % of Apelin-13 control | 62 % of Pyr-Apelin-13 control |

| Binder | β-Arrestin recruitment, Percent of Apelin-13 Control Activity (10 µM peptide) [1] | cAMP levels, Percent of Pyr-Apelin-13 Control Activity (10 µM peptide, 10 µM forskolin) [2] |
| --- | --- | --- |
| RRMVFQCLEG[dA] [SEQ ID NO 23] | 0 % of Apelin-13 control | -4 % of Pyr-Apelin-13 control |
| RRMVYQCLEG[dA] [SEQ ID NO 24] | -1 % of Apelin-13 control | 16 % of Pyr-Apelin-13 control |
| RREMVYQCLCG[dA] (cysteine pairing not given here) [SEQ ID NO 25] | -1 % of Apelin-13 control | 3 % of Pyr-Apelin-13 control |
| RREMVYQCLEG[dA] [SEQ ID NO 26] | 0 % of Apelin-13 control | 29 % of Pyr-Apelin-13 control |
| RRMAYQCLEG[dA] [SEQ ID NO 27] | -1 % of Apelin-13 control | 9 % of Pyr-Apelin-13 control |
| RRMGYQCLEG[dA] [SEQ ID NO 28] | -1 % of Apelin-13 control | 3 % of Pyr-Apelin-13 control |
| RRMMGMVYQCLEG[dA] [SEQ ID NO 29] | 0 % of Apelin-13 control | 21 % of Pyr-Apelin-13 control |
| RRMMGMVAQCLEG[dA] [SEQ ID NO 30] | -1 % of Apelin-13 control | 31 % of Pyr-Apelin-13 control |
| RRMEVYQCLCG[dA] (cysteine pairing not given here) [SEQ ID NO 31] | 0 % of Apelin-13 control | 2 % of Pyr-Apelin-13 control |
| RRMEVYQCLEG[dA] [SEQ ID NO 32] | 0 % of Apelin-13 control | 4 % of Pyr-Apelin-13 control |
| RRLLGLVFQSLCG[dA] [SEQ ID NO 33] | 9 % of Apelin-13 control | 27 % of Pyr-Apelin-13 control |
| RXMMGMVFQSLCGA ((AIB) aminoisobutyric acid at position 2; (dA) D-alanine at position 14) [SEQ ID NO 34] | 8 % of Apelin-13 control | 61 % of Pyr-Apelin-13 control |
| RXLLGLVFQSLCGA ((AIB) aminoisobutyric acid at position 2; (dA) D-alanine at position 14) [SEQ ID NO 35] | 17 % of Apelin-13 control | 8 % of Pyr-Apelin-13 control |
| RRMMGMVFQCLCG[dA] (cysteine pairing not given here) [SEQ ID NO 8] | 17 % of Apelin-13 control | 64 % of Pyr-Apelin-13 control |
| RRMMGMVEQSLCG[dA] [SEQ ID NO 38] | 0 % of Apelin-13 control | 12 % of Pyr-Apelin-13 control |
| RRMMGMVFQSLEG[dA] [SEQ ID NO 39] | 0 % of Apelin-13 control | -13 % of Pyr-Apelin-13 control |
| RRLLGLVEQSLCG[dA] [SEQ ID NO 40] | 0 % of Apelin-13 control | 19 % of Pyr-Apelin-13 control |
| RRLLGLVFQSLEG[dA] [SEQ ID NO 41] | 0 % of Apelin-13 control | 15 % of Pyr-Apelin-13 control |
| MMGMV [SEQ ID NO 44] | 0 % of Apelin-13 control | 5 % of Pyr-Apelin-13 control |
| MMGMVF [SEQ ID NO 45] | 0 % of Apelin-13 control | 10 % of Pyr-Apelin-13 control |
